This assay has as its target FLAG-tagged rainbow trout IL-2 (IL-2A), expressed in insect cells (rainbow trout (Oncorhynchus mykiss)). Description: SEC.

In the case of “FLAG-tagged rainbow trout IL-2 (IL-2A), expressed in insect cells (ligand)”, the stoichiometry N came to 2.

These data come from doi:10.1101/644955.
